Reference: article PMC3202633

Molecular target: GFP-β1-integrin (UniProt P05556)
Assay: co-IP; GFP-Trap capture of GFP-β1-integrin (or GFP alone) from MEFs spread on 50K-coated dishes, unstimulated or stimulated with H/0 for 10 min, cross-linked with DTBP; western blotting

RhoGDI, sequence (Q99PT1 whole entry): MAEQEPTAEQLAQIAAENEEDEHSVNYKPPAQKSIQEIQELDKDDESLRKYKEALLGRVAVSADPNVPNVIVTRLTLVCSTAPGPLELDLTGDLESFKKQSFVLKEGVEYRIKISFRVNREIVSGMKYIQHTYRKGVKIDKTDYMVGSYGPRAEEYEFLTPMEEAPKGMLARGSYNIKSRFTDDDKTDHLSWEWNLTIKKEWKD
UniProt P05556, sequence (P05556 21-798): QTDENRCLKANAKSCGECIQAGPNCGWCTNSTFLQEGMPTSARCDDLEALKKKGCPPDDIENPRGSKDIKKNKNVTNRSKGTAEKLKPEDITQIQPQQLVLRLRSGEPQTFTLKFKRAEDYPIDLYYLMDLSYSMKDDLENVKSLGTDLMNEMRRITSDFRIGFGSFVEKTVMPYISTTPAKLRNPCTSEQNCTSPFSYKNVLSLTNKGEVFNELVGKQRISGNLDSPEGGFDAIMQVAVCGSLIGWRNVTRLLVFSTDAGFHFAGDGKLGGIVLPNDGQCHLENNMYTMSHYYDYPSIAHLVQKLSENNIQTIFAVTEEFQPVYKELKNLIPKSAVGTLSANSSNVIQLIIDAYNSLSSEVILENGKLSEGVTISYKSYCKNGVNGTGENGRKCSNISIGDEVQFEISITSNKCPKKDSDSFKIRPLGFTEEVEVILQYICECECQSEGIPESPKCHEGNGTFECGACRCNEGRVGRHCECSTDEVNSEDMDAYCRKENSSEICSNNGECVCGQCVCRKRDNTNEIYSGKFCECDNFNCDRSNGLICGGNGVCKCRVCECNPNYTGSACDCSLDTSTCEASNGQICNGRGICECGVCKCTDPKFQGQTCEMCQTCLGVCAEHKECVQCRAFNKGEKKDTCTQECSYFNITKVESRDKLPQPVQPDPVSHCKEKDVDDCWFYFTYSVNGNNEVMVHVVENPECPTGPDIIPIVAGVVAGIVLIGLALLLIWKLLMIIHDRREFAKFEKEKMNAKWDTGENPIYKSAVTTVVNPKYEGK

reduction in bound RhoGDI after 10 min H/0 stimulation, against unstimulated cells: 46%
Substance: RhoGDI (from UniProt Q99PT1 1-204) (natural protein)
